Assay [1] deals with human CACNG1, cell surface-expressed (human) (UniProt Q06432).
Assay [2] shares this target. This is another data set of the same source.
For assay [3] the target is unchanged. This is another data set of the same source.

We go through one molecule from US20260234660A1, “TREATMENT OF MUSCLE RELATED DISORDERS WITH ANTI-HUMAN CACNG1 ANTIBODIES” (Regeneron Pharmaceuticals, Inc., priority 2023, published 2026).

Sequence of human CACNG1, cell surface-expressed (human) (Q06432 whole entry): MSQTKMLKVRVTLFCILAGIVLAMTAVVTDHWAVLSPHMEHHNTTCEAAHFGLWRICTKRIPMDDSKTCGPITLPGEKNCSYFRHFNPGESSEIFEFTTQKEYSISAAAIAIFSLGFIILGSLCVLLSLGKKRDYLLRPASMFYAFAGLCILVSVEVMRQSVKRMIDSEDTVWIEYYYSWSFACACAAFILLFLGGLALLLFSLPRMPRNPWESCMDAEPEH

B1: REGN14571-M3004 (antibody, from a related filing, V domains shown, part only)
VH: QVQLQESGPGLVKPSETLSLTCTVSGDSINNYYWTWLRQPPGKGLEWIGYIYYSGSANYNPSLKSRVTISVDTSKNQFSLKLNSVTAADTAVYYCARGAVKYFRHWGQGTLVTVSS
VL: EIVLTQSPGTLSLSPGERATLSCRASQTINHNNLAWYQQRPGQAPRLLIYGASNRATAIPDRFSGSGSGTDFTLTISRLEPEDFEVYSCQQYGSLPLTFGGGTKVEIKR
In assay [1], B1 had an EC50; androgen receptor luciferase reporter (RLU), hCACNG1.AR.Luc LNCaP cells, 48 hours of 6.95 nM. For the same molecule, in assay [2], the EC50; androgen receptor luciferase reporter (RLU), hCACNG1.AR.Luc LNCaP cells, 72 hours turned out to be 5.44 nM. In assay [3], this molecule displayed an EC50; androgen receptor luciferase reporter (RLU), hCACNG1.AR.Luc LNCaP cells, 24 hours of 7.83 nM.
